Consider one substance from article PMC4927282.

This assay concerns the target caveolin-1 (Cav1) (UniProt Q03135). Description: acceptor-photobleaching FRET, CFP/YFP pairs. To be noted: reference: Y14F-CFP/Y14F-YFP pair; sites Y14.
UniProt Q03135, sequence (Q03135 whole entry, stated change not applied): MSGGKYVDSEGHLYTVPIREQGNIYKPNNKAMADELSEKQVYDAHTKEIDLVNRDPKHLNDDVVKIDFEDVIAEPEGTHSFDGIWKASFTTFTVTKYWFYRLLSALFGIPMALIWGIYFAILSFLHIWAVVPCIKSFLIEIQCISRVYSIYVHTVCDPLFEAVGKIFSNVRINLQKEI

“caveolin-1 (Cav1) (from UniProt Q03135) Y14D-CFP/Y14D-YFP pair”: the “other: FRET efficiency” value is given as “weaker; reference 0.90 ± 0.13”.
